Test results as given in patent US6232095.

System: Hmp1 (Ustilago maydis)
Test: competition

G/A mismatch 50-mer was tested. Which binding signal (equal to C/T competitor at 75 nM) did it give?
Its binding signal is 1 fold.

For G/C homoduplex 50-mer, which binding signal (4-fold more homoduplex needed than C/T competitor, exact homoduplex pair not stated) is on record?
Its binding signal is 4 fold.

cruciform DNA 61-mer was tested. Which binding signal (cruciform more effective competitor than C/T mismatch) did it give?
The binding signal was 7.5 fold.
